Results taken from patent US11833164B2, “Methods of treating Fabry disease in patients having a mutation in the GLA gene” (Amicus Therapeutics, Inc., priority 2019, dated 2023).

Tested on: mutant form of α-Gal A expressed in HEK-293 cells
Experiment: HEK assay (GLP HEK / Migalastat Amenability Assay): α-Gal A activity in lysates of transiently transfected HEK-293 cells incubated with or without 10 μM migalastat
Format: cell-based, human
Settings: for Absolute increase (% WT) / Relative increase: 10 μM migalastat versus baseline; for Baseline α-Gal A activity (% WT): absence of migalastat; for Baseline α-Gal A activity (% WT) / 10 μM migalastat α-Gal A activity (% WT): percentage of baseline wild-type α-Gal A activity; for Baseline α-Gal A activity (% WT) / Baseline α-Gal A activity / 10 μM migalastat α-Gal A activity / 10 μM migalastat α-Gal A activity (% WT): mean ± SEM; for Baseline α-Gal A activity / 10 μM migalastat α-Gal A activity: lysates of HEK-293 cells transiently transfected with the mutant form; for Baseline α-Gal A activity: incubated 5 days in absence of migalastat; for 10 μM migalastat α-Gal A activity: incubated 5 days with 10 μM migalastat; for 10 μM migalastat α-Gal A activity (% WT): with 10 μM migalastat, 5 days
How it was run: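 Activity reported as 4-MU released (nmol/mg/hr), mean±SEM, from lysates of transiently transfected HEK-293 cells expressing mutant α-Gal A, cultured with or without 10 μM migalastat.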

B1: L324V (protein)
chain: MQLRNPELHLGCALALRFLALVSWDIPGARALDNGLARTPTMGWLHWERFMCNLDCQEEPDSCISEKLFMEMAELMVSEGWKDAGYEYLCIDDCWMAPQRDSEGRLQADPQRFPHGIRQLANYVHSKGLKLGIYADVGNKTCAGFPGSFGYYDIDAQTFADWGVDLLKFDGCYCDSLENLADGYKHMSLALNRTGRSIVYSCEWPLYMWPFQKPNYTEIRQYCNHWRNFADIDDSWKSIKSILDWTSFNQERIVDVAGPGGWNDPDMLVIGNFGLSWNQQVTQMALWAIMAAPLFMSNDLRHISPQAKALLQDKDVIAINQDPVGKQGYQLRQGDNFEVWERPLSGLAWAVAMINRQEIGGPRSYTIAVASLGKGVACNPACFITQLLPVKRKLGFYEWTSRLRSHINPTGTVLLQLENTMQMSLKDLL
Absolute increase (% WT): 13.0 % WT | Relative increase: 1.2 | Baseline α-Gal A activity (% WT): 57.2 ± 2.1 % WT | Baseline α-Gal A activity: 17027 ± 1167 nmol/mg/h | 10 μM migalastat α-Gal A activity: 20866 ± 1331 nmol/mg/h | 10 μM migalastat α-Gal A activity (% WT): 70.2 ± 2 % WT

B2: K326R (protein)
chain: MQLRNPELHLGCALALRFLALVSWDIPGARALDNGLARTPTMGWLHWERFMCNLDCQEEPDSCISEKLFMEMAELMVSEGWKDAGYEYLCIDDCWMAPQRDSEGRLQADPQRFPHGIRQLANYVHSKGLKLGIYADVGNKTCAGFPGSFGYYDIDAQTFADWGVDLLKFDGCYCDSLENLADGYKHMSLALNRTGRSIVYSCEWPLYMWPFQKPNYTEIRQYCNHWRNFADIDDSWKSIKSILDWTSFNQERIVDVAGPGGWNDPDMLVIGNFGLSWNQQVTQMALWAIMAAPLFMSNDLRHISPQAKALLQDKDVIAINQDPLGRQGYQLRQGDNFEVWERPLSGLAWAVAMINRQEIGGPRSYTIAVASLGKGVACNPACFITQLLPVKRKLGFYEWTSRLRSHINPTGTVLLQLENTMQMSLKDLL
Absolute increase (% WT): 48.0 % WT | Relative increase: 1.8 | Baseline α-Gal A activity (% WT): 61.7 ± 3.4 % WT | Baseline α-Gal A activity: 17744 ± 923 nmol/mg/h | 10 μM migalastat α-Gal A activity: 31690 ± 1112 nmol/mg/h | 10 μM migalastat α-Gal A activity (% WT): 109.7 ± 2.9 % WT

B3: K326E (protein)
chain: MQLRNPELHLGCALALRFLALVSWDIPGARALDNGLARTPTMGWLHWERFMCNLDCQEEPDSCISEKLFMEMAELMVSEGWKDAGYEYLCIDDCWMAPQRDSEGRLQADPQRFPHGIRQLANYVHSKGLKLGIYADVGNKTCAGFPGSFGYYDIDAQTFADWGVDLLKFDGCYCDSLENLADGYKHMSLALNRTGRSIVYSCEWPLYMWPFQKPNYTEIRQYCNHWRNFADIDDSWKSIKSILDWTSFNQERIVDVAGPGGWNDPDMLVIGNFGLSWNQQVTQMALWAIMAAPLFMSNDLRHISPQAKALLQDKDVIAINQDPLGEQGYQLRQGDNFEVWERPLSGLAWAVAMINRQEIGGPRSYTIAVASLGKGVACNPACFITQLLPVKRKLGFYEWTSRLRSHINPTGTVLLQLENTMQMSLKDLL
Absolute increase (% WT): 25.3 % WT | Relative increase: 1.4 | Baseline α-Gal A activity (% WT): 55.6 ± 2.6 % WT | Baseline α-Gal A activity: 15541 ± 832 nmol/mg/h | 10 μM migalastat α-Gal A activity: 22340 ± 828 nmol/mg/h | 10 μM migalastat α-Gal A activity (% WT): 80.9 ± 3.9 % WT

B4: G325A (protein)
chain: MQLRNPELHLGCALALRFLALVSWDIPGARALDNGLARTPTMGWLHWERFMCNLDCQEEPDSCISEKLFMEMAELMVSEGWKDAGYEYLCIDDCWMAPQRDSEGRLQADPQRFPHGIRQLANYVHSKGLKLGIYADVGNKTCAGFPGSFGYYDIDAQTFADWGVDLLKFDGCYCDSLENLADGYKHMSLALNRTGRSIVYSCEWPLYMWPFQKPNYTEIRQYCNHWRNFADIDDSWKSIKSILDWTSFNQERIVDVAGPGGWNDPDMLVIGNFGLSWNQQVTQMALWAIMAAPLFMSNDLRHISPQAKALLQDKDVIAINQDPLAKQGYQLRQGDNFEVWERPLSGLAWAVAMINRQEIGGPRSYTIAVASLGKGVACNPACFITQLLPVKRKLGFYEWTSRLRSHINPTGTVLLQLENTMQMSLKDLL
Absolute increase (% WT): 34.4 % WT | Relative increase: 1.5 | Baseline α-Gal A activity (% WT): 64.9 ± 3.8 % WT | Baseline α-Gal A activity: 18183 ± 1254 nmol/mg/h | 10 μM migalastat α-Gal A activity: 27523 ± 1456 nmol/mg/h | 10 μM migalastat α-Gal A activity (% WT): 99.2 ± 5.4 % WT

B5: G325C (protein)
chain: MQLRNPELHLGCALALRFLALVSWDIPGARALDNGLARTPTMGWLHWERFMCNLDCQEEPDSCISEKLFMEMAELMVSEGWKDAGYEYLCIDDCWMAPQRDSEGRLQADPQRFPHGIRQLANYVHSKGLKLGIYADVGNKTCAGFPGSFGYYDIDAQTFADWGVDLLKFDGCYCDSLENLADGYKHMSLALNRTGRSIVYSCEWPLYMWPFQKPNYTEIRQYCNHWRNFADIDDSWKSIKSILDWTSFNQERIVDVAGPGGWNDPDMLVIGNFGLSWNQQVTQMALWAIMAAPLFMSNDLRHISPQAKALLQDKDVIAINQDPLCKQGYQLRQGDNFEVWERPLSGLAWAVAMINRQEIGGPRSYTIAVASLGKGVACNPACFITQLLPVKRKLGFYEWTSRLRSHINPTGTVLLQLENTMQMSLKDLL
Absolute increase (% WT): 34.5 % WT | Relative increase: 1.7 | Baseline α-Gal A activity (% WT): 51.4 ± 1.7 % WT | Baseline α-Gal A activity: 14482 ± 695 nmol/mg/h | 10 μM migalastat α-Gal A activity: 23873 ± 1021 nmol/mg/h | 10 μM migalastat α-Gal A activity (% WT): 85.9 ± 4 % WT

B6: G325V (protein)
chain: MQLRNPELHLGCALALRFLALVSWDIPGARALDNGLARTPTMGWLHWERFMCNLDCQEEPDSCISEKLFMEMAELMVSEGWKDAGYEYLCIDDCWMAPQRDSEGRLQADPQRFPHGIRQLANYVHSKGLKLGIYADVGNKTCAGFPGSFGYYDIDAQTFADWGVDLLKFDGCYCDSLENLADGYKHMSLALNRTGRSIVYSCEWPLYMWPFQKPNYTEIRQYCNHWRNFADIDDSWKSIKSILDWTSFNQERIVDVAGPGGWNDPDMLVIGNFGLSWNQQVTQMALWAIMAAPLFMSNDLRHISPQAKALLQDKDVIAINQDPLVKQGYQLRQGDNFEVWERPLSGLAWAVAMINRQEIGGPRSYTIAVASLGKGVACNPACFITQLLPVKRKLGFYEWTSRLRSHINPTGTVLLQLENTMQMSLKDLL
Absolute increase (% WT): 17.1 % WT | Relative increase: 9.3 | Baseline α-Gal A activity (% WT): 2.2 ± 0.2 % WT | Baseline α-Gal A activity: 572 ± 30 nmol/mg/h | 10 μM migalastat α-Gal A activity: 5333 ± 294 nmol/mg/h | 10 μM migalastat α-Gal A activity (% WT): 19.3 ± 1.1 % WT

B7: K326M (protein)
chain: MQLRNPELHLGCALALRFLALVSWDIPGARALDNGLARTPTMGWLHWERFMCNLDCQEEPDSCISEKLFMEMAELMVSEGWKDAGYEYLCIDDCWMAPQRDSEGRLQADPQRFPHGIRQLANYVHSKGLKLGIYADVGNKTCAGFPGSFGYYDIDAQTFADWGVDLLKFDGCYCDSLENLADGYKHMSLALNRTGRSIVYSCEWPLYMWPFQKPNYTEIRQYCNHWRNFADIDDSWKSIKSILDWTSFNQERIVDVAGPGGWNDPDMLVIGNFGLSWNQQVTQMALWAIMAAPLFMSNDLRHISPQAKALLQDKDVIAINQDPLGMQGYQLRQGDNFEVWERPLSGLAWAVAMINRQEIGGPRSYTIAVASLGKGVACNPACFITQLLPVKRKLGFYEWTSRLRSHINPTGTVLLQLENTMQMSLKDLL
Absolute increase (% WT): 63.2 % WT | Relative increase: 3.7 | Baseline α-Gal A activity (% WT): 24.4 ± 1.6 % WT | Baseline α-Gal A activity: 8482 ± 500 nmol/mg/h | 10 μM migalastat α-Gal A activity: 31204 ± 1979 nmol/mg/h | 10 μM migalastat α-Gal A activity (% WT): 87.6 ± 3.5 % WT

B8: K326Q (protein)
chain: MQLRNPELHLGCALALRFLALVSWDIPGARALDNGLARTPTMGWLHWERFMCNLDCQEEPDSCISEKLFMEMAELMVSEGWKDAGYEYLCIDDCWMAPQRDSEGRLQADPQRFPHGIRQLANYVHSKGLKLGIYADVGNKTCAGFPGSFGYYDIDAQTFADWGVDLLKFDGCYCDSLENLADGYKHMSLALNRTGRSIVYSCEWPLYMWPFQKPNYTEIRQYCNHWRNFADIDDSWKSIKSILDWTSFNQERIVDVAGPGGWNDPDMLVIGNFGLSWNQQVTQMALWAIMAAPLFMSNDLRHISPQAKALLQDKDVIAINQDPLGQQGYQLRQGDNFEVWERPLSGLAWAVAMINRQEIGGPRSYTIAVASLGKGVACNPACFITQLLPVKRKLGFYEWTSRLRSHINPTGTVLLQLENTMQMSLKDLL
Absolute increase (% WT): 26.1 % WT | Relative increase: 1.3 | Baseline α-Gal A activity (% WT): 78 ± 3 % WT | Baseline α-Gal A activity: 22075 ± 1209 nmol/mg/h | 10 μM migalastat α-Gal A activity: 29168 ± 1869 nmol/mg/h | 10 μM migalastat α-Gal A activity (% WT): 104.1 ± 5.7 % WT

B9: L324W (protein)
chain: MQLRNPELHLGCALALRFLALVSWDIPGARALDNGLARTPTMGWLHWERFMCNLDCQEEPDSCISEKLFMEMAELMVSEGWKDAGYEYLCIDDCWMAPQRDSEGRLQADPQRFPHGIRQLANYVHSKGLKLGIYADVGNKTCAGFPGSFGYYDIDAQTFADWGVDLLKFDGCYCDSLENLADGYKHMSLALNRTGRSIVYSCEWPLYMWPFQKPNYTEIRQYCNHWRNFADIDDSWKSIKSILDWTSFNQERIVDVAGPGGWNDPDMLVIGNFGLSWNQQVTQMALWAIMAAPLFMSNDLRHISPQAKALLQDKDVIAINQDPWGKQGYQLRQGDNFEVWERPLSGLAWAVAMINRQEIGGPRSYTIAVASLGKGVACNPACFITQLLPVKRKLGFYEWTSRLRSHINPTGTVLLQLENTMQMSLKDLL
Absolute increase (% WT): 19.8 % WT | Relative increase: 1.3 | Baseline α-Gal A activity (% WT): 73.5 ± 1.8 % WT | Baseline α-Gal A activity: 20623 ± 721 nmol/mg/h | 10 μM migalastat α-Gal A activity: 25772 ± 1045 nmol/mg/h | 10 μM migalastat α-Gal A activity (% WT): 93.3 ± 4.5 % WT
